This is an account of results in the supplement of paper PMC7125110.

± gives the standard error. Variants at the floor of the assay were thinned out.

B1: glmS ribozyme (parent)
chain: AUAAAAGCGCCAGAACUACAGAAAUGUAGUUGACGAGGAGGAGGUUUAUCGAAUUUUCGGCGGAUGCCUCCAAA

What all share (conditions): with glucosamine-6-phosphate
In series [1] the parent is B1. As to the kind of experiment: self-cleavage kobs at 40 uM GlcN6P; higher = faster cleavage; RNA array. The procedure, abridged: (§1)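 Tiles bearing barcoded ribozyme variants, transcribed in situ by E. coli RNA polymerase on sequenced MiSeq chips, were imaged over ~14 h at 37 °C using a hybridised Cy3 probe. Glucosamine-6-phosphate was supplied at 40 μM to 10 mM in HEPES/KCl/Mg(OAc)2 buffer. kobs came from one- or two-exponential decay fits to normalised per-tile medians, and weighted Michaelis–Menten fits then provided kcat and KM.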

In series [2] the parent is B1. Nature of the series: self-cleavage kobs at 160 uM GlcN6P; higher = faster cleavage; RNA array. The procedure, abridged: as §1
Variants of B1 are the subject of series [3]. Nature of the series: self-cleavage kobs at 640 uM GlcN6P; higher = faster cleavage; RNA array. The procedure, abridged:
as §1

Variants of B1 are the subject of series [4]. As to the kind of experiment: self-cleavage kobs at 2500 uM GlcN6P; higher = faster cleavage; RNA array. The procedure, abridged: as §1
Variants of B1 are the subject of series [5]. As to the kind of experiment: self-cleavage kobs at 10000 uM GlcN6P; higher = faster cleavage; RNA array. The method, boiled down:
as §1

On to C50G U65A, for which the “self-cleavage kobs at 40 uM GlcN6P” value with glucosamine-6-phosphate [1] is 6.61e-05 ± 1.9e-05 s⁻¹. The “self-cleavage kobs at 160 uM GlcN6P” value with glucosamine-6-phosphate [2] was 6.9e-05 ± 3e-05 s⁻¹. Further, the “self-cleavage kobs at 640 uM GlcN6P” value in the series with glucosamine-6-phosphate [3] was found to be 0.00136 ± 0.00038 s⁻¹. Also, in the series with glucosamine-6-phosphate [4], the “self-cleavage kobs at 2500 uM GlcN6P” value was 0.000972 ± 0.00037 s⁻¹.

Regarding G38C A48U U65A, the “self-cleavage kobs at 40 uM GlcN6P” value with glucosamine-6-phosphate [1] was less than 1e-05 s⁻¹.

For the variant G51A G60C, in the series with glucosamine-6-phosphate [1], the “self-cleavage kobs at 40 uM GlcN6P” value was less than 1e-05 s⁻¹. Moreover, the “self-cleavage kobs at 640 uM GlcN6P” value with glucosamine-6-phosphate [3] was less than 1e-05 s⁻¹.

On to G7A A12G, for which, in the series with glucosamine-6-phosphate [1], the “self-cleavage kobs at 40 uM GlcN6P” value was less than 1e-05 s⁻¹. Further, in the series with glucosamine-6-phosphate [3], the “self-cleavage kobs at 640 uM GlcN6P” value was less than 1e-05 s⁻¹. For the same variant, in the series with glucosamine-6-phosphate [4], the “self-cleavage kobs at 2500 uM GlcN6P” value was less than 1e-05 s⁻¹. The “self-cleavage kobs at 10000 uM GlcN6P” value in the series with glucosamine-6-phosphate [5] is less than 1e-05 s⁻¹.

Turning to A12U A39U C71U, in the series with glucosamine-6-phosphate [1], the “self-cleavage kobs at 40 uM GlcN6P” value is 0.000517 ± 0.00011 s⁻¹. Also, the “self-cleavage kobs at 10000 uM GlcN6P” value with glucosamine-6-phosphate [5] came out at 0.0493 ± 0.014 s⁻¹.

With G37C U46C, the “self-cleavage kobs at 40 uM GlcN6P” value in the series with glucosamine-6-phosphate [1] was less than 1e-05 s⁻¹.

For the variant A14U G37U G59U C61A, the “self-cleavage kobs at 40 uM GlcN6P” value in the series with glucosamine-6-phosphate [1] is less than 1e-05 s⁻¹.

In the case of G9U G60U C71G, the “self-cleavage kobs at 40 uM GlcN6P” value in the series with glucosamine-6-phosphate [1] is less than 1e-05 s⁻¹.

Consider A42G A52G U65G, for which the “self-cleavage kobs at 40 uM GlcN6P” value in the series with glucosamine-6-phosphate [1] was less than 1e-05 s⁻¹. Moreover, in the series with glucosamine-6-phosphate [4], the “self-cleavage kobs at 2500 uM GlcN6P” value amounted to 8.47e-05 ± 2.8e-05 s⁻¹. In the series with glucosamine-6-phosphate [5], the “self-cleavage kobs at 10000 uM GlcN6P” value came to 0.000346 ± 8.1e-05 s⁻¹.

Turning to A14U G41C C70G, the “self-cleavage kobs at 40 uM GlcN6P” value in the series with glucosamine-6-phosphate [1] turned out to be 0.000998 ± 0.00029 s⁻¹. The “self-cleavage kobs at 160 uM GlcN6P” value in the series with glucosamine-6-phosphate [2] turned out to be 0.00172 ± 0.00056 s⁻¹. In the series with glucosamine-6-phosphate [3], the “self-cleavage kobs at 640 uM GlcN6P” value was 0.00931 ± 0.0023 s⁻¹. The “self-cleavage kobs at 2500 uM GlcN6P” value with glucosamine-6-phosphate [4] is 0.0459 ± 0.018 s⁻¹. Also, the “self-cleavage kobs at 10000 uM GlcN6P” value with glucosamine-6-phosphate [5] came to 0.0658 ± 0.026 s⁻¹.

For the variant C10G C11U, in the series with glucosamine-6-phosphate [1], the “self-cleavage kobs at 40 uM GlcN6P” value is less than 1e-05 s⁻¹. Further, the “self-cleavage kobs at 640 uM GlcN6P” value in the series with glucosamine-6-phosphate [3] was less than 1e-05 s⁻¹.

For the variant C8G C16A A42U U65A, the “self-cleavage kobs at 40 uM GlcN6P” value in the series with glucosamine-6-phosphate [1] was less than 1e-05 s⁻¹. In addition, the “self-cleavage kobs at 10000 uM GlcN6P” value in the series with glucosamine-6-phosphate [5] is less than 1e-05 s⁻¹.

On to A42U G63A, for which the “self-cleavage kobs at 40 uM GlcN6P” value with glucosamine-6-phosphate [1] was less than 1e-05 s⁻¹. Also, the “self-cleavage kobs at 640 uM GlcN6P” value in the series with glucosamine-6-phosphate [3] is less than 1e-05 s⁻¹. Also, in the series with glucosamine-6-phosphate [5], the “self-cleavage kobs at 10000 uM GlcN6P” value was less than 1e-05 s⁻¹.

For the variant U54A C68U, the “self-cleavage kobs at 40 uM GlcN6P” value with glucosamine-6-phosphate [1] was 0.000391 ± 6.1e-05 s⁻¹. Also, in the series with glucosamine-6-phosphate [2], the “self-cleavage kobs at 160 uM GlcN6P” value was 0.000218 ± 4.6e-05 s⁻¹. Also, in the series with glucosamine-6-phosphate [3], the “self-cleavage kobs at 640 uM GlcN6P” value came out at 0.000767 ± 0.00017 s⁻¹. In addition, in the series with glucosamine-6-phosphate [4], the “self-cleavage kobs at 2500 uM GlcN6P” value came out at 0.000405 ± 0.00011 s⁻¹.

For C11U A12U C34A G66C, in the series with glucosamine-6-phosphate [1], the “self-cleavage kobs at 40 uM GlcN6P” value is less than 1e-05 s⁻¹. For the same variant, the “self-cleavage kobs at 640 uM GlcN6P” value with glucosamine-6-phosphate [3] is less than 1e-05 s⁻¹. Further, in the series with glucosamine-6-phosphate [4], the “self-cleavage kobs at 2500 uM GlcN6P” value was less than 1e-05 s⁻¹. Also, the “self-cleavage kobs at 10000 uM GlcN6P” value in the series with glucosamine-6-phosphate [5] was less than 1e-05 s⁻¹.

As for G44A G59C, in the series with glucosamine-6-phosphate [1], the “self-cleavage kobs at 40 uM GlcN6P” value is less than 1e-05 s⁻¹. Further, the “self-cleavage kobs at 160 uM GlcN6P” value in the series with glucosamine-6-phosphate [2] is less than 1e-05 s⁻¹. In the series with glucosamine-6-phosphate [3], the “self-cleavage kobs at 640 uM GlcN6P” value was less than 1e-05 s⁻¹. Further, the “self-cleavage kobs at 2500 uM GlcN6P” value in the series with glucosamine-6-phosphate [4] was less than 1e-05 s⁻¹. The “self-cleavage kobs at 10000 uM GlcN6P” value with glucosamine-6-phosphate [5] is less than 1e-05 s⁻¹.

With A6G G9C, the “self-cleavage kobs at 40 uM GlcN6P” value with glucosamine-6-phosphate [1] was less than 1e-05 s⁻¹. Besides, the “self-cleavage kobs at 160 uM GlcN6P” value with glucosamine-6-phosphate [2] was less than 1e-05 s⁻¹. The “self-cleavage kobs at 10000 uM GlcN6P” value with glucosamine-6-phosphate [5] is less than 1e-05 s⁻¹.

Turning to A12C U54C, the “self-cleavage kobs at 40 uM GlcN6P” value with glucosamine-6-phosphate [1] is 0.00107 ± 0.00014 s⁻¹. The “self-cleavage kobs at 160 uM GlcN6P” value in the series with glucosamine-6-phosphate [2] was found to be 0.00117 ± 0.00027 s⁻¹. The “self-cleavage kobs at 640 uM GlcN6P” value with glucosamine-6-phosphate [3] worked out at 0.0063 ± 0.0021 s⁻¹. Besides, in the series with glucosamine-6-phosphate [4], the “self-cleavage kobs at 2500 uM GlcN6P” value turned out to be 0.0137 ± 0.0032 s⁻¹. For the same variant, in the series with glucosamine-6-phosphate [5], the “self-cleavage kobs at 10000 uM GlcN6P” value amounted to 0.0203 ± 0.0043 s⁻¹.

Turning to G37C A52U A53U, the “self-cleavage kobs at 40 uM GlcN6P” value with glucosamine-6-phosphate [1] was less than 1e-05 s⁻¹.

Take A33C A36G C67G: the “self-cleavage kobs at 40 uM GlcN6P” value with glucosamine-6-phosphate [1] is less than 1e-05 s⁻¹.

Turning to A15G G43C, the “self-cleavage kobs at 40 uM GlcN6P” value with glucosamine-6-phosphate [1] was less than 1e-05 s⁻¹. The “self-cleavage kobs at 160 uM GlcN6P” value with glucosamine-6-phosphate [2] is less than 1e-05 s⁻¹. In the series with glucosamine-6-phosphate [3], the “self-cleavage kobs at 640 uM GlcN6P” value was less than 1e-05 s⁻¹. Besides, the “self-cleavage kobs at 2500 uM GlcN6P” value with glucosamine-6-phosphate [4] is less than 1e-05 s⁻¹. Further, the “self-cleavage kobs at 10000 uM GlcN6P” value in the series with glucosamine-6-phosphate [5] is less than 1e-05 s⁻¹.

With G9C G43U G44U C58A C71A, the “self-cleavage kobs at 40 uM GlcN6P” value with glucosamine-6-phosphate [1] was less than 1e-05 s⁻¹.

With G13A U46G G59U C70U, in the series with glucosamine-6-phosphate [1], the “self-cleavage kobs at 40 uM GlcN6P” value is less than 1e-05 s⁻¹. In addition, in the series with glucosamine-6-phosphate [4], the “self-cleavage kobs at 2500 uM GlcN6P” value was less than 1e-05 s⁻¹.

For the variant G35A U54G C68G, in the series with glucosamine-6-phosphate [1], the “self-cleavage kobs at 40 uM GlcN6P” value came to 0.000144 ± 5.9e-05 s⁻¹.
